The values that follow come from publication PMC3478282, “Probing the Putative Active Site of YjdL: An Unusual Proton-Coupled Oligopeptide Transporter from E. coli” (PLoS ONE, 2012).

Assay [1] has as its target YjdL from E. coli, wild type (E. coli) (UniProt P39276).
Assay [2] deals with YdgR-Tyr292Ala (E. coli MG1655) (UniProt P77304).
Assay [3] deals with YjdL Tyr58Phe (E. coli) (UniProt P39276).
The target in assay [4] is YjdL-Ala281Phe (E. coli) (UniProt P39276).
Assay [5] concerns the target YjdL from E. coli, wild type (E. coli) (UniProt P39276). The source holds these as a separate data set.
In assay [6] the target is YdgR-Tyr38Phe (E. coli MG1655) (UniProt P77304).
Assay [7] concerns the target YjdL Tyr25Phe (E. coli) (UniProt P39276).
Assay [8] has as its target YjdL-Trp278Phe (E. coli) (UniProt P39276).
Assay [9] addresses YdgR-Tyr71Phe (E. coli MG1655) (UniProt P77304).
In assay [10] the target is YjdL Tyr21Phe (E. coli) (UniProt P39276).
Assay [11] addresses YdgR from E. coli, wild type (E. coli MG1655) (UniProt P77304).
For assay [12], the target named is YdgR-Tyr292Phe (E. coli MG1655) (UniProt P77304).
Assay [13] has as its target YjdL Tyr113Phe (E. coli) (UniProt P39276).
Assay [14] addresses YjdL-Asp392Ser (E. coli) (UniProt P39276).
The target of assay [15] is YjdL Tyr58Phe (E. coli) (UniProt P39276). The source holds these as a separate data set.
For assay [16], the target named is YjdL-Ala281Phe (E. coli) (UniProt P39276). This is another data set of the same source.
Assay [17] deals with YjdL from E. coli, wild type (E. coli) (UniProt P39276). This is another data set of the same source.
The target of assay [18] is YjdL Tyr25Phe (E. coli) (UniProt P39276). This is another data set of the same source.
In assay [19] the target is YjdL-Trp278Phe (E. coli) (UniProt P39276). This is another data set of the same source.
Assay [20] has as its target YjdL Tyr21Phe (E. coli) (UniProt P39276). This is another data set of the same source.
Assay [21] deals with YjdL Tyr113Phe (E. coli) (UniProt P39276). This is another data set of the same source.

Like-named read-outs stand apart in the source and are kept apart here.

Ala-Ala (peptide) had a β-Ala-Lys(AMCA) uptake (0.5 mM) left with 50 mM competitor, E. coli cells, pH 6.5 in assay [1] of less than 10%. Also, the IC50 of inhibition of β-Ala-Lys(AMCA) uptake into E. coli cells (0.2 mM substrate, 5 min, pH 6.5) in assay [2] is 0.59 mM; in assay [4], more than 50 mM; in [5], 2.8 mM; in assay [7], more than 50 mM; in assay [8] it was 9.9 mM; in assay [9], 0.37 mM. Moreover, the IC50 of inhibition of β-Ala-Lys(AMCA) uptake into E. coli cells (0.2 mM substrate, 5 min, pH 6.5) in assay [10] amounted to 4.5 mM; in assay [11], 0.39 mM; in assay [12], 0.15 mM; in assay [13] it was 1.9 mM. The IC50 of inhibition of β-Ala-Lys(AMCA) uptake into E. coli cells (0.5 mM substrate, 15 min, pH 6.5) stood at 28.1 mM in [3], 2.2 mM in assay [5], 0.92 mM in assay [6] and 1.04 mM in assay [11].

For the substance Ala-Ala-Ala (peptide), the β-Ala-Lys(AMCA) uptake (0.5 mM) left with 50 mM competitor, E. coli cells, pH 6.5 in assay [1] came to 55%; in assay [14], 34%.

Ala-Lys (peptide) gave a β-Ala-Lys(AMCA) uptake (0.5 mM) left with 50 mM competitor, E. coli cells, pH 6.5 in [1] of less than 10%. Moreover, the IC50 of inhibition of β-Ala-Lys(AMCA) uptake into E. coli cells (0.5 mM substrate, 15 min, pH 6.5) was more than 50 mM in [15] and 0.89 mM in assay [17]. The IC50 of inhibition of β-Ala-Lys(AMCA) uptake into E. coli cells (0.2 mM substrate, 5 min, pH 6.5) amounted to 0.26 mM in assay [16]; 0.28 mM in [17]; 0.4 mM in assay [18]; 0.38 mM in [19]; 0.45 mM in assay [20]; 0.34 mM in assay [21].
